From paper PMC12632272

Assays:
[1] = molecular target: T1, CRP (cAMP receptor protein) (Escherichia coli ATCC 25922) (UniProt P0ACJ8); assay: competition; details: EMSA: 20 mM Tris (pH not stated), 10 mM MgCl2, 0.1 mM EDTA, 100 mM KCl, 200 uM cAMP, room temperature 15 min; 5% gel, 0.3x TBE, 150 V, 20 C
T1 sequence: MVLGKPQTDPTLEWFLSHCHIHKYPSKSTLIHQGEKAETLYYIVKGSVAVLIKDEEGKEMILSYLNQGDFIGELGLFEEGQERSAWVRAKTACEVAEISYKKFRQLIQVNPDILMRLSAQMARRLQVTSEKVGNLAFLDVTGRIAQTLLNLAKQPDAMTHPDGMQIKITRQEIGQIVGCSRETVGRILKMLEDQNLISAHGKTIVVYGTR

[2] = molecular target: T1, CRP (cAMP receptor protein) (Escherichia coli ATCC 25922); assay: EMSA; details: EMSA: 20 mM Tris (pH not stated), 10 mM MgCl2, 0.1 mM EDTA, 100 mM KCl, 200 uM cAMP, room temperature 15 min; 5% gel, 0.3x TBE, 150 V, 20 C

Sequence | binding [1] | binding [2]
CGCCTAAGTTTGCCCGTAATAATTCCCCGTGCAGTACTATTGTTGCGACATAACAACATGAATTACATGGTAATAATAGATGTTTTCCTCTGCTGATTCCTGTAAAGATCATGACTCCATACGACATCATTTTTAATATTATACAGTTCAAAAAATCTACATGTGTCACAAATAATTTTACATTTGATAATGTATAGTTGTCACATGACAAGTTGATTATCATTCTGTGTAGACAAGGAGAACTGTTATGACGGAT (double strand) [P1/2 unlabeled competitor] | binds | –
CGCCTAAGTTTGCCCGTAATAATTCCCCGTGCAGTACTATTGTTGCGACATAACAACATGAATTACATGGTAATAATAGATGTTTTCCTCTGCTGATTCCTGTAAAGATCATGACTCCATACGACATCATTTTTAATATTATACAGTTCAAAAAATCTACATGTGTCACAAATAATTTTACATTTGATAATGTATAGTTGTCACATGACAAGTTGATTATCATTCTGTGTAGACAAGGAGAACTGTTATGACGGAT (double strand) [P1/2 DHAP shunt promoter fragment] | – | binds
